Test results taken from patent US20250243277A1 (AVACTA LIFE SCIENCES, published 2025).
Each block holds one binder with its values, some of them ahead of it.

Tests used:
[1] = target: T1, human PD-L1-Fc (R&D Systems) (human, UniProt Q9NZQ7 19-239); assay: SPR (Biacore): huPD-L1-Fc captured on a Protein A sensor chip, HEK-expressed Affimer as analyte rising from 0.125 to 2 nM, 2000 s dissociation
T1 construct: Bought from R&D Systems; Biotinylated in-house for the phage selection; also called huPD-L1-Fc; human PD-L1-Fc antigen; not shown: Fc part of the bought fusion
T1 sequence (Q9NZQ7 19-239 limits assumed): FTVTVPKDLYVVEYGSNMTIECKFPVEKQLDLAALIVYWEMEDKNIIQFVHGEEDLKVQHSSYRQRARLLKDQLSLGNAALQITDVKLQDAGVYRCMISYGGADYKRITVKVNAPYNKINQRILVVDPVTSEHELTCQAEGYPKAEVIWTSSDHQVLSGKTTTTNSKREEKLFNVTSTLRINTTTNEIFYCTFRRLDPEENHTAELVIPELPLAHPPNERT
Description: (§1) Secreted AFFIMER® clones were purified from supernatant using Ni Sepharose Excel resin (Cytiva) as described in Example 2 and run-on SEC-HPLC to assess their purity and molecular weight (FIG. 11). BIACORE™ was run using a sensor chip Protein A (Cytiva) capturing huPD-L1-Fc (R&D System), and AFFIMER® clones were run in solution as analyte increasing from 0.125 to 2 nM titration and a dissociation time of 2000 seconds. Regeneration of the antigen captured on the chip was performed using a 10 mM glycine pH1.5 solution. […] Avidity was further shown in both the PD-L1 binding ELISA and the Promega cell-based assay, with the ILF dimer blocking the PD-L1:PD1 interaction more strongly than a mammalian produced monomer (FIGS. 13-14).

[2] = target: T1, human PD-L1-Fc (R&D Systems); assay: PD-L1 binding ELISA (direct binding, absorbance 450nm - 630nm rises with the Affimer concentration). Column head on the sheet reads 'IC50 nM' although the curve is a half-maximal binding curve; the text does not name the PD-L1 reagent on the plate
[3] = target: T1, human PD-L1-Fc (R&D Systems); assay: SPR (Biacore); huPD-L1-Fc captured on Protein A chip, Affimer as analyte 0.125 to 2 nM; ILF homodimer (avidity), huPD-L1-Fc captured on Protein A chip
Description: as §1

[4] = target: T1, human PD-L1-Fc (R&D Systems); assay: SPR (Biacore); huPD-L1-Fc captured on Protein A chip, Affimer as analyte 0.125 to 2 nM; monomer, huPD-L1-Fc captured on Protein A chip
Description: as §1

koff [1]: 4.56e-05 s⁻¹
kon [1]: 4.44e+06 M⁻¹ s⁻¹
IC50 [2]: 0.05 nM
Kd [3]: 0.0103 nM
B1: Clone 80 ILF (designed binder)
chain: MIPGGLSEAKPATPEIQEIVDKVKPQLEEKTGETYGKLEAVQYKTQVVRRKHFPQWPGTNYYIKVRAGDNKYMHLKVFKSLDLQPREVFQEDLVLTGYQVDKNKDDELTGFAEAAAKEAAAKEAAAKEAAAKEAAAKEAAAKMIPGGLSEAKPATPEIQEIVDKVKPQLEEKTGETYGKLEAVQYKTQVVRRKHFPQWPGTNYYIKVRAGDNKYMHLKVFKSLDLQPREVFQEDLVLTGYQVDKNKDDELTGF
notes: Two Clone 80 units in one chain joined by the rigid linker A(EAAAK)6; also called in-line fusion (ILF) homodimer; Dimer ILF format

Kd [4]: 0.54 nM
koff [1]: 0.0014 s⁻¹
kon [1]: 2.58e+06 M⁻¹ s⁻¹
IC50 [2]: 0.26 nM
B2: Clone 80 monomer (mammalian, HEK-expressed) (designed binder)
chain: MIPGGLSEAKPATPEIQEIVDKVKPQLEEKTGETYGKLEAVQYKTQVVRRKHFPQWPGTNYYIKVRAGDNKYMHLKVFKSLDLQPREVFQEDLVLTGYQVDKNKDDELTGF
notes: also called mammalian produced monomer; mammalian expressed AFFIMER Clone 80 monomer
